Positions count from the first letter of the chain named.
B1: suPAR_DB01_F03 (scFv, V domains shown)
VH: QVQLVQSGAEVKKPGASVKVSCKASGYTFTSYYMHWVRQAPGQGLEWMGWIDHENGNTIYDQKFQGRVTMTRDTSTSTVYMELSSLRSEDTAVYYCARGYDVDWFVYWGQGTLVTVSS
VL: DIQMTQSPSSLSASVGDRVTITCSARQSVSYMYWYQQKPGKAPKLLIYRTSNLASGVPSRFSGSGSGTDFTLTISSLQPEDFATYYCQQYHSYPPTFGGGTKVEIK
notes: Screened as scFv
B2: suPAR_DB01_F12 (scFv, V domains shown)
VH: B1 VH with Y27F, T28N, F29I, T30K, S31D, M34I, H53P, N57S
VL: B1 VL with S24R
notes: Screened as scFv
B3: suPAR_DB01_H01 (scFv, V domains shown)
VH: B1 VH with Y27D, H53P
VL: B1 VL with Q27S
notes: Screened as scFv
B4: suPAR_DB01_H03 (scFv, V domains shown)
VH: B1 VH with Y27D, F29I, S31N, H53T, E54N, N55S, N57G, I59Q, D61A
VL: B1 VL with Q27S
notes: Screened as scFv
B5: suPAR_DB01_G07 (scFv, V domains shown)
VH: B1 VH with Y27N, H53P
VL: B1 VL with Q27S
notes: Screened as scFv
B6: suPAR_DB01_G10 (scFv, V domains shown)
VH: B1 VH with S31N, N55G, I59S, D61A
VL: B1 VL with Q27S
notes: Screened as scFv
B7: suPAR_DB01_F04 (scFv, V domains shown)
VH: B1 VH with S31D, E54S, D61A
VL: B1 VL with Q27S
notes: Screened as scFv
B8: suPAR_DB01_G04 (scFv, V domains shown)
VH: B1 VH with F29L, T30S, S31G, H53P, E54N, N55S, N57G, I59K, D61A
VL: B1 VL with S24R
notes: Screened as scFv
B9: suPAR_DB01_G12 (scFv, V domains shown)
VH: B1 VH with Y27D, T30S, S31N
VL: B1 VL with Q27S, V29I
notes: Screened as scFv
B10: suPAR_DB01_F11 (scFv, V domains shown)
VH: B1 VH with N55G, I59S, D61A
VL: B1 VL with S24R, R26S, Q27S
notes: Screened as scFv
B11: suPAR_DB01_F10 (scFv, V domains shown)
VH: B1 VH with N57S, I59S
VL: B1 VL with Q27S
notes: Screened as scFv
B12: suPAR_DB01_G09 (scFv, V domains shown)
VH: B1 VH with Y27H, F29L, T30N, H53P, D61A
VL: B1 VL
notes: Screened as scFv
B13: suPAR_DB01_G01 (scFv, V domains shown)
VH: B1 VH with Y27D, T30S
VL: B1 VL with Q27S
notes: Screened as scFv
B14: suPAR_DB01_F06 (scFv, V domains shown)
VH: B1 VH with D61A
VL: B1 VL with V29I, A54Q
notes: Screened as scFv
B15: suPAR_DB01_G08 (scFv, V domains shown)
VH: B1 VH with T28S, S31N, I59S, D61A
VL: B1 VL with N52S
notes: Screened as scFv
B16: suPAR_DB01_G02 (scFv, V domains shown)
VH: B1 VH with T28S, S31D, D61A
VL: B1 VL with Q27S
notes: Screened as scFv
B17: suPAR_DB01_F02 (scFv, V domains shown)
VH: B1 VH with S31N, M34V
VL: B1 VL with Q27S
notes: Screened as scFv
B18: suPAR_DB01_F08 (scFv, V domains shown)
VH: B1 VH with S31G, N57S, D61A
VL: B1 VL with S24R
notes: Screened as scFv
B19: suPAR_DB01_F05 (scFv, V domains shown)
VH: B1 VH with T30S, S31N, N55G, N57S
VL: B1 VL with Q27S
notes: Screened as scFv
B20: suPAR_DB04_E05 (scFv, V domains shown)
VH: QVQLVQSGAEVKKPGASVKVSCKASGFNIKDYYIHWVRQAPGQGLEWVGWIDPHSGGTNYAQKFQGRVTMTRDTSTSTVYMELSSLRSEDTAVYYCARGYDVDWFVYWGQGTLVTVSS
VL: B1 VL with Q27S
notes: scFv clone from phage display
B21: suPAR_DB04_G12 (scFv, V domains shown)
VH: B1 VH with T30S, S31D, I59S, D61A
VL: B1 VL with Q27S
notes: scFv clone from phage display
B22: suPAR_DB04_G08 (scFv, V domains shown)
VH: B1 VH with Y27H, F29L, S31G, M34V
VL: B1 VL with Q27S
notes: scFv clone from phage display
B23: suPAR_DB04_G03 (scFv, V domains shown)
VH: B1 VH with S31G
VL: B1 VL with R26S, Q27S, A54Q
notes: scFv clone from phage display
B24: suPAR_DB04_F10 (scFv, V domains shown)
VH: B1 VH with S31D, E54S, N55G, D61A
VL: B1 VL with Q27S
notes: scFv clone from phage display
B25: suPAR_DB04_F06 (scFv, V domains shown)
VH: B1 VH with S31G, I59S, D61A
VL: B1 VL with V29I
notes: scFv clone from phage display
B26: suPAR_DB04_G10 (scFv, V domains shown)
VH: B1 VH with S31G, Y100N
VL: B1 VL with S24R, R26S, Q27S
notes: scFv clone from phage display
B27: suPAR_DB04_G06 (scFv, V domains shown)
VH: B1 VH with Y27D, M34V
VL: B1 VL with R26S
notes: scFv clone from phage display
B28: suPAR_DB04_F09 (scFv, V domains shown)
VH: B1 VH with S31N, M34F, I59S
VL: B1 VL with Q27S
notes: scFv clone from phage display
B29: suPAR_DB04_G09 (scFv, V domains shown)
VH: B1 VH with Y27D, F29S, S31T
VL: B1 VL with R26K, Q27S
notes: scFv clone from phage display
B30: suPAR_DB04_G04 (scFv, V domains shown)
VH: B1 VH with T28S, M34I, N57S, D61A
VL: B1 VL with R26S
notes: scFv clone from phage display
B31: suPAR_DB04_F11 (scFv, V domains shown)
VH: B1 VH with Y32H, N55G, I59S, D61A
VL: B1 VL with Q27S
notes: scFv clone from phage display
B32: suPAR_DB04_G02 (scFv, V domains shown)
VH: B1 VH with S31N
VL: B1 VL with Q27S, N52S
notes: scFv clone from phage display
B33: suPAR_DB04_F08 (scFv, V domains shown)
VH: B1 VH with Y27G, E54S, N57S, I59S, D61A, K63E
VL: B1 VL with Q27S
notes: scFv clone from phage display
B34: suPAR_DB04_G05 (scFv, V domains shown)
VH: B1 VH with T28N, F29I, S31D, M34I, H53P, N57S
VL: B1 VL with Q27S, A54Q
notes: scFv clone from phage display
B35: suPAR_DB04_G07 (scFv, V domains shown)
VH: B1 VH with Y27F, T28S, S31T, H53P, D61A
VL: B1 VL with Q27S
notes: scFv clone from phage display
B36: suPAR_DB04_F07 (scFv, V domains shown)
VH: B1 VH with S31G, M34V
VL: B1 VL with Q27S
notes: scFv clone from phage display
B37: suPAR_DB04_G11 (scFv, V domains shown)
VH: B20 VH with N28T, I29F, V48M, H54D
VL: B1 VL
notes: scFv clone from phage display
B38: suPAR_DB04_H01 (scFv, V domains shown)
VH: B1 VH with T30I, S31G, Y32S, M34V
VL: B1 VL with Q27S, N52S
notes: scFv clone from phage display
B39: suPAR_DB04_F05 (scFv, V domains shown)
VH: B1 VH with T30S, S31D, M34V, N55G, N57S, I59S, D61A
VL: B1 VL with V29I
notes: scFv clone from phage display

The binders below were run against T1, human soluble urokinase plasminogen activator receptor (hsuPAR) (human, UniProt Q03405 23-303, limits assumed) (assay: BLI (Octet) off-rate screen of scFv).
T1 construct: also called human suPAR; rhuPAR-His
T1 sequence (Q03405 23-303 limits assumed): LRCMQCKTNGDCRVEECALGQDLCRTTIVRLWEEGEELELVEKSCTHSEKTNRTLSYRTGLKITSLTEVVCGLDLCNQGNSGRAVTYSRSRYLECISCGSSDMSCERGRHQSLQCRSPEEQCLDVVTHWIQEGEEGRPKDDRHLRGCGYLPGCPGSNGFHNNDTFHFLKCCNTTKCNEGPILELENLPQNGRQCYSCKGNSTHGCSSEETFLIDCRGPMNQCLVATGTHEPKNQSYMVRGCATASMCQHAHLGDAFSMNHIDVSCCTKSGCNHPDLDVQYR

Binder | koff
B1 | 0.00251 s⁻¹
B2 | 0.00282 s⁻¹
B3 | 0.00454 s⁻¹
B4 | 0.001 s⁻¹
B5 | 0.00407 s⁻¹
B6 | 0.00343 s⁻¹
B7 | 0.00309 s⁻¹
B8 | 0.00364 s⁻¹
B9 | 0.00466 s⁻¹
B10 | 0.00293 s⁻¹
B11 | 0.00183 s⁻¹
B12 | 0.00433 s⁻¹
B13 | 0.00429 s⁻¹
B14 | 0.00267 s⁻¹
B15 | 0.00309 s⁻¹
B16 | 0.00245 s⁻¹
B17 | 0.004 s⁻¹
B18 | 0.000505 s⁻¹
B19 | 0.00175 s⁻¹

These binders were tested against T2, cynomolgus soluble urokinase plasminogen activator receptor (cynomolgus suPAR) (cynomolgus, UniProt Q9GK78 23-303, limits assumed) (assay: BLI (Octet) off-rate screen of scFv).
T2 construct: also called cynomolgus uPAR; cynoPLAUR-His
Target sequence in this assay (Q9GK78 23-303 limits assumed): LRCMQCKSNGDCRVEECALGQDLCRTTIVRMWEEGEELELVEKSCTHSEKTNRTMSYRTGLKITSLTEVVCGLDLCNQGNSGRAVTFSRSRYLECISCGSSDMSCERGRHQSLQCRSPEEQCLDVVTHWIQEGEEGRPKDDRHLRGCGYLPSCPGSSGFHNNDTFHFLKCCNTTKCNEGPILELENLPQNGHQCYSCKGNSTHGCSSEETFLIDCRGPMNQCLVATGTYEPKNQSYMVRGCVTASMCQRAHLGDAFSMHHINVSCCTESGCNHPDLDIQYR

Binder | koff
B1 | 6.17e-07 s⁻¹
B2 | 0.000192 s⁻¹
B3 | 0.000122 s⁻¹
B4 | 0.000677 s⁻¹
B5 | 1.73e-05 s⁻¹
B6 | 0.000197 s⁻¹
B7 | 4.59e-05 s⁻¹
B8 | 7.99e-05 s⁻¹
B9 | 0.000247 s⁻¹
B10 | 9.02e-05 s⁻¹
B11 | 3.88e-05 s⁻¹
B12 | 0.000347 s⁻¹
B13 | 0.000152 s⁻¹
B14 | 4.98e-05 s⁻¹
B15 | 0.000104 s⁻¹
B16 | 0.000149 s⁻¹
B17 | 9.84e-05 s⁻¹
B18 | 0.000207 s⁻¹
B19 | 4.95e-07 s⁻¹

These binders were tested against T3, cynomolgus soluble urokinase plasminogen activator receptor (cynomolgus suPAR) (cynomolgus, UniProt Q9GK78 23-303, limits assumed) (assay: off-rate screen of scFv clones (kdis), Octet BLI).
T3 construct: also called cynomolgus uPAR; cynoPLAUR-His
Target sequence in this assay (Q9GK78 23-303 limits assumed): as above

Binder | koff
B20 | 3.92e-07 s⁻¹
B21 | 8.1e-05 s⁻¹
B22 | 0.000203 s⁻¹
B23 | 0.000747 s⁻¹
B24 | 0.000274 s⁻¹
B25 | 0.000195 s⁻¹
B26 | 0.000462 s⁻¹
B27 | 0.000208 s⁻¹
B28 | 0.000122 s⁻¹
B29 | 0.000647 s⁻¹
B30 | 0.000342 s⁻¹
B31 | 0.000121 s⁻¹
B32 | 0.000388 s⁻¹
B33 | 4.31e-05 s⁻¹
B34 | 8.25e-05 s⁻¹
B35 | 5.96e-07 s⁻¹
B36 | 3.33e-05 s⁻¹
B37 | 0.00021 s⁻¹
B38 | 0.00104 s⁻¹
B39 | 0.000278 s⁻¹

The binders below were run against T4, human soluble urokinase plasminogen activator receptor (hsuPAR) (human, UniProt Q03405 23-303, limits assumed) (assay: off-rate screen of scFv clones (kdis), Octet BLI).
T4 construct: also called human suPAR; rhuPAR-His
T4 sequence (Q03405 23-303 limits assumed): as the sequence (Q03405 23-303 limits assumed) above

Binder | koff
B20 | 0.00359 s⁻¹
B21 | 0.00528 s⁻¹
B22 | 0.00317 s⁻¹
B23 | 0.00119 s⁻¹
B24 | 0.00412 s⁻¹
B25 | 0.00279 s⁻¹
B26 | 0.00322 s⁻¹
B27 | 0.0027 s⁻¹
B28 | 0.00462 s⁻¹
B29 | 0.00359 s⁻¹
B30 | 0.000751 s⁻¹
B31 | 0.0051 s⁻¹
B32 | 0.00185 s⁻¹
B33 | 0.00261 s⁻¹
B34 | 0.00364 s⁻¹
B35 | 0.00424 s⁻¹
B36 | 0.00269 s⁻¹
B37 | 0.00327 s⁻¹
B38 | 0.00127 s⁻¹
B39 | 0.00405 s⁻¹

Source: patent US20250215104A1 (WALDEN BIOSCIENCES, published 2025)
